Results as given in the supplement of paper PMC11136658.

System: peptide library, one residue held at a place counted from the Y acceptor
Assay: relative phosphorylation of the sub-library (ratio to the mean residue at this position); higher = residue favoured
How it was run: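 Peptide library mixtures, biotinylated and centred on Tyr, each fixed one residue at one position from −5 to +5. Purified recombinant kinases were incubated with them for 90 min in 384-well plates alongside 50 μM ATP and γ-32P-ATP, and the captured, rinsed peptides on streptavidin membranes were measured by phosphorimaging and ImageQuant. Normalization divided each position's intensities by the sum of its 18 randomized residues (16 for the Ser/Thr-free library) and multiplied by that number, so that values give phosphorylation relative to the mean randomized residue.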

Chain of JAK1, construct: aa866-end, human (P23458 866-1154, looked up): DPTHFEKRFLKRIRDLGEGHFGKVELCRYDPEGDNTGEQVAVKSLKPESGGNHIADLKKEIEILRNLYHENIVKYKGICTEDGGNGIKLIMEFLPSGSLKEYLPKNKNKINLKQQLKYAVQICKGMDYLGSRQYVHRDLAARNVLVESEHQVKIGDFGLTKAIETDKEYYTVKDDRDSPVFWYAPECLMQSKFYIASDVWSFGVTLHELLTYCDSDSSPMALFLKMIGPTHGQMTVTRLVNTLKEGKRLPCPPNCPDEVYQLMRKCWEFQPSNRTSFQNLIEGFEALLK
Chain of ZAP70, construct: Full length, human (P43403 whole entry, looked up): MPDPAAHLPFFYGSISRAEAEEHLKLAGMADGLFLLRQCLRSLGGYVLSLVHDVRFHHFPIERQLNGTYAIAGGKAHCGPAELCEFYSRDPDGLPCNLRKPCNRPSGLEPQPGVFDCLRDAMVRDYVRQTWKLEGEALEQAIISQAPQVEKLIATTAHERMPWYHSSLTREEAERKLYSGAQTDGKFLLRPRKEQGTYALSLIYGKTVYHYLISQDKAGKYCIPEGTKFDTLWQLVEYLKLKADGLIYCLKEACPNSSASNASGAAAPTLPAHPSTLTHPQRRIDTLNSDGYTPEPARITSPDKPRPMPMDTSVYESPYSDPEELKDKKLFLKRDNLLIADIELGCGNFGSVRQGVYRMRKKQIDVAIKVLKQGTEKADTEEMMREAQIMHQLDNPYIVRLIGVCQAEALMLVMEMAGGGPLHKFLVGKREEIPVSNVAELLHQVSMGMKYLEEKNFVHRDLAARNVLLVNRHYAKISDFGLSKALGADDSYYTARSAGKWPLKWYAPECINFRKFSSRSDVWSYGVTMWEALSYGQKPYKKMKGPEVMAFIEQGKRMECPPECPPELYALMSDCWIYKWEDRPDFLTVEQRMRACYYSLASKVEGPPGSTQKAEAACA
Chain of EPHA3, construct: aa571-end, human (P29320 571-983, looked up): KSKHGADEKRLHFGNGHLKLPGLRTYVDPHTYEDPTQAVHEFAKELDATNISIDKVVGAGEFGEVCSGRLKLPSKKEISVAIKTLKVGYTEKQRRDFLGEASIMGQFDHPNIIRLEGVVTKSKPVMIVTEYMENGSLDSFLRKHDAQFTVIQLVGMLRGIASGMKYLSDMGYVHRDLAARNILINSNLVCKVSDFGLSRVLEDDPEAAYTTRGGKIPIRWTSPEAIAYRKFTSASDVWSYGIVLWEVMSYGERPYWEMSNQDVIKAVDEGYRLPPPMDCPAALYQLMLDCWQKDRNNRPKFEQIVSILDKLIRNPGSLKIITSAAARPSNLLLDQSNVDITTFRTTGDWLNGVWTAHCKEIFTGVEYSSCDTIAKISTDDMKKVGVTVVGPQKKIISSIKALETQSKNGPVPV

ZAP70, construct: Full length, human (from UniProt P43403)
relative phosphorylation
Conditions	at +1	at +2	at +3	at +4	at +5	at -1	at -2	at -3	at -4	at -5
A fixed	1.06	0.821	0.963	0.884	1.33	0.998	0.898	0.967	1.56	1.12
D fixed	0.587	0.722	0.434	1.07	1.28	3.39	1.51	2.04	1.67	1.57
E fixed	1.29	1.08	0.275	1	1.28	1.95	2.19	2.09	2.51	1.4
F fixed	1.5	1.2	0.924	0.707	0.618	0.579	0.492	0.617	0.494	0.863
G fixed	0.481	0.544	0.842	1.14	1.63	0.746	1.56	1.1	1.43	1.58
H fixed	1.33	0.773	0.947	1.21	0.872	0.946	1	0.848	0.854	1.15
I fixed	0.769	0.724	1.11	0.548	0.423	0.956	0.413	0.588	0.561	0.684
K fixed	0.553	0.811	0.389	1.01	0.858	0.496	0.629	0.638	0.609	0.847
L fixed	0.761	0.949	0.956	0.764	0.55	0.796	0.465	0.559	0.571	0.553
M fixed	0.97	0.827	1.98	0.997	0.83	0.671	0.633	0.54	0.618	0.947
N fixed	0.635	1.01	0.499	0.731	0.967	1.2	1.52	1.53	0.822	1.26
P fixed	0.314	0.988	2.61	1.77	2.28	0.594	0.845	1.06	1.76	1.08
Q fixed	1.4	1.14	0.626	1.28	0.936	0.958	1.46	1.01	1.03	0.886
R fixed	0.448	0.77	0.432	1	0.522	0.4	0.576	0.713	0.684	0.814
S fixed	0.981	0.862	1.09	1.05	1.15	0.899	1.39	1.36	0.877	0.847
T fixed	1.31	1.08	0.782	0.955	1.25	1.04	1.26	0.966	0.661	0.925
V fixed	1.56	0.99	1.55	0.907	0.617	0.8	0.693	0.666	0.676	0.837
W fixed	2.05	2.7	1.58	0.97	0.62	0.573	0.464	0.713	0.625	0.625
pThr fixed	1.75	2.19	0.364	0.792	1.55	6.59	4.22	4.5	2.58	2.92
pTyr fixed	14.8	2.62	0.501	0.573	1.09	16.3	3.62	4.31	3.03	2.17

JAK1, construct: aa866-end, human (from UniProt P23458)
relative phosphorylation
Conditions	at +1	at +2	at +3	at +4	at +5	at -1	at -2	at -3	at -4	at -5
A fixed	0.719	1.02	0.75	0.954	1.06	1.36	1.03	1.03	1.2	1.05
D fixed	0.171	0.329	0.239	0.618	0.655	0.907	0.905	0.919	0.963	0.916
E fixed	0.237	0.402	0.195	0.79	0.649	1.08	0.81	0.891	1.02	0.871
F fixed	2.15	0.807	1.02	1.08	1.09	1.11	0.81	1.1	1.23	1.03
G fixed	0.385	0.788	0.879	1.19	1.19	1.44	1.21	1.11	1.19	1.16
H fixed	0.87	0.545	0.714	1.05	0.906	0.847	0.915	0.905	0.788	0.931
I fixed	2.1	0.695	2.37	0.834	0.784	1.24	0.941	0.795	0.861	1.04
K fixed	0.286	1.88	0.713	1.25	1.16	0.364	0.824	0.732	0.851	1.01
L fixed	2.04	0.871	2.13	0.875	0.886	1.24	1.04	1.15	1.12	1.09
M fixed	2.06	0.911	1.35	1.11	0.897	1.17	1.03	1.09	0.983	1.07
N fixed	0.289	1.04	0.752	0.882	0.923	0.749	1.05	1.02	0.784	0.914
P fixed	0.371	1.55	0.755	0.89	1.41	1.63	1.13	1.41	1.33	1.24
Q fixed	0.699	0.893	0.494	1.03	0.852	0.661	1.06	0.845	1.09	0.953
R fixed	0.509	2.13	0.985	1.45	1.33	0.414	1.02	0.851	0.929	0.911
S fixed	0.534	1.43	0.836	1.16	1.21	0.813	1.33	1.13	0.844	0.904
T fixed	0.812	1.09	1.2	0.956	1.19	0.865	1.05	0.983	0.678	0.805
V fixed	1.8	0.832	1.67	0.887	0.838	1.35	0.931	0.957	0.922	0.953
W fixed	1.96	0.781	0.953	0.988	0.971	0.756	0.89	1.08	1.22	1.14
pThr fixed	0.349	0.342	0.188	0.413	0.485	0.849	0.695	0.704	0.872	0.823
pTyr fixed	0.608	0.384	0.271	0.735	0.608	2.64	0.751	0.934	0.929	0.925

EPHA3, construct: aa571-end, human (from UniProt P29320)
relative phosphorylation
Conditions	at +1	at +2	at +3	at +4	at +5	at -1	at -2	at -3	at -4	at -5
A fixed	1.63	0.63	0.711	0.794	1.05	0.536	1.11	0.827	1.03	0.924
D fixed	1.1	1.73	0.574	1.03	1.04	2.68	1.16	1.07	1.06	0.949
E fixed	1.89	1.71	0.544	1.06	0.941	1.19	1.04	1.17	1.05	0.848
F fixed	0.91	1.44	1.4	1.16	1.42	0.997	0.863	1.32	1.3	1.15
G fixed	0.902	0.424	0.526	1.14	0.981	0.389	1.04	0.853	1.01	1.02
H fixed	0.53	0.717	0.69	0.998	0.756	0.534	0.804	0.959	0.859	0.996
I fixed	1.18	1.02	2.34	0.801	0.925	1.83	0.939	1.11	0.974	0.999
K fixed	0.407	0.47	0.403	0.685	0.653	0.382	0.899	0.674	0.918	1.01
L fixed	0.982	0.908	1.62	0.754	1.19	1.75	1.13	0.995	1.34	1.11
M fixed	1.17	0.915	0.989	0.951	0.885	0.827	0.747	0.976	0.837	0.891
N fixed	0.556	1.05	0.514	0.809	0.774	2.18	0.942	1.06	0.817	1.03
P fixed	0.353	0.567	1.42	1.25	1.52	0.44	1.15	1.02	1.06	1.09
Q fixed	1.28	0.789	0.775	0.997	0.8	0.567	1.25	0.894	1.09	1.02
R fixed	0.473	0.601	0.505	0.809	0.648	0.411	0.842	0.806	0.847	0.982
S fixed	0.811	0.685	0.63	0.877	1.06	0.525	1.28	0.902	0.785	0.836
T fixed	0.694	0.742	0.589	0.866	0.841	0.867	0.805	0.885	0.653	0.774
V fixed	1.59	0.905	1.85	0.779	1.04	1.04	1.04	0.994	0.903	0.836
W fixed	1.54	2.7	1.92	2.23	1.47	0.849	0.966	1.48	1.48	1.53
pThr fixed	1.53	2.12	0.736	1.05	0.946	1.88	1.04	0.915	0.851	0.854
pTyr fixed	1.9	7.49	1.44	1.89	1.07	2.88	1.1	1.22	1.13	1.15
